Source: PMC5045189 (2016)

Molecular target: T1, Staphylococcus aureus manganese transporter protein MntC, wild type, recombinant (Staphylococcus aureus, UniProt W8TNQ9 1-309)
T1 chain: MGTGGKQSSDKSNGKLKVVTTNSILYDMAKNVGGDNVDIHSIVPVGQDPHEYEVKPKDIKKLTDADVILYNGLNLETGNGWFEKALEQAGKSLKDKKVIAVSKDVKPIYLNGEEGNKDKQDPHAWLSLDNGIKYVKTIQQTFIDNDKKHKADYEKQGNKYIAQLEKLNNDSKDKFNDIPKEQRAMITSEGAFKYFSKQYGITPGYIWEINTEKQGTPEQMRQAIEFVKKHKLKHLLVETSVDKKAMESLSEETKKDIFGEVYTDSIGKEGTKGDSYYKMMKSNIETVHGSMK
Test: ELISA

B1: monoclonal antibody mAB 305-78-7 (intact antibody, interference group 2) (antibody, V domains shown)
VH: QVQLQQSGAELARPGASVKMSCKASGYTFTRYTMHWVQQRPGQGLEWIGYINPSSDYTKYNQKFKDKATMTADKSSSTAYMQLSSLTSEDSAVYYCARKEDVGYWYFDFWGTGTTVTVSS
VL: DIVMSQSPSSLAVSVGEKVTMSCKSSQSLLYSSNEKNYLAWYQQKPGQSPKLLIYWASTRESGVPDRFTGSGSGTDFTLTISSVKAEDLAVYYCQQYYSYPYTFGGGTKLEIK
In the case of B1, the Kd is reported as 1.3 nM.
